Laboratory results reported in patent US20220227863A1 (BLUEFIN BIOMEDICINE, published 2022).

What follows are binders tested against T1, recombinant human ILT3 ectodomain with C-terminal histidine tag (human, UniProt Q8NHJ6 22-259) (assay: BLI (Octet Red), antibody on Protein A biosensors, recombinant ILT3 in solution).
T1 construct: also called recombinant ILT3; hILT3; not shown: C-terminal histidine tag
T1 sequence (Q8NHJ6 22-259 D223G): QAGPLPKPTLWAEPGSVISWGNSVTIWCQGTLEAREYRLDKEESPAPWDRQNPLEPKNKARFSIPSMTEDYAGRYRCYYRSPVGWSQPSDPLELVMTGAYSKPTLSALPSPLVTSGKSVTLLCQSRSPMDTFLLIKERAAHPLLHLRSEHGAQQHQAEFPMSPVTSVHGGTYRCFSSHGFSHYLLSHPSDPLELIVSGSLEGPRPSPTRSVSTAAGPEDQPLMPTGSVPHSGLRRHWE

Row | Binder | Kd [nM]
1 | 20H6_24C3 (antibody, V domains shown, Recombinant antibody from CHO cells) VH: QVQLQESGPGLLKPSETLSLTCTVSGGSISPYYWSWIRQPPGKGLEWIGYIYYSGNTNYNPSLQSRLTISVDTSKNQFSLKLSSVTAADTAVYYCARRGYSFGFYYGLDVWGQGTTVTVSS VL: DIQMTQSPSSLSASVGDRVTITCRASQDISIYLAWYQQKPGKVPNLLIYLASTLQSGVPSRFSGSGSGTDFTLTISSLQPEDVATYYCQKYNSAPWTFGQGTKLEIK | 1
2 | 7C12_24A6 (antibody, V domains shown, Recombinant antibody from CHO cells) VH: QVQLQESGPGLVNPSKTLSLTCTVSGGSISSYFWSWIRQPPGKGLEWIGYIYDSGSTNYNPSLKSRVTISVDTSKNHFSLKLSSVTAADTAVYYCARRGGYYGSGSYGGMDVWGQGTTVTVSS VL: DIQMTQSPSSLSASVGDRVTITCRASQGISNYLAWYQQKPGKVPKLLISAASTLQSGVPSRFSGSGSGTDFTLTISSLQPEDVATYYCQKYNSAPWTFGQGTKLEIK | 50
3 | 10A5_24A2 (antibody, V domains shown, Recombinant antibody from CHO cells) VH: QLQLQESGPGLVNPSKTLSLTCNVSGGSMSNYFWSWIRQPPGKGLEWIGYIYNSGNTNYHPSLQSRVTISVDTSKNLFSLKLTSVTAADTAVYYCARRGGYYGSGNYGGLDVWGHGTTVTVSS VL: DIQMTQSPSSLSASVGDRVTITCRASQGISNYLAWYQQKPGKVPKLLIYAASTLQSGVPSRFSGTGSGTDFTLTISSLQPEDVATYYCQKYDSAPWTFGQGTKVEIK | 2
4 | 8C7_24B1 (antibody, V domains shown, Recombinant antibody from CHO cells) VH: QVQLQESGPGLVKPSETLSLTCTVSGGSISSYYWSWIRQPPGKGLEWIGYIHYSGSTNYNPSLKSRVTISEDTSKNQFSLKLSSVTAADTAVFYCAGRRYYYDSSGYLDYWGQGTLVTVSS VL: DIQMTQSPSSLSASVGDRVTITCRASQGISNYLAWYQQKPGKVPKLLIYAASTLQSGVPSRFSGSGSGTDFTLTISSLQPEDVATYYCQKYNSAPWTFGQGTKLEIK | 60
5 | 3H3_24B2 (antibody, V domains shown, Recombinant antibody from CHO cells) VH: QIQLQESGPGLVNPSKTLSLTCTVSGGSIRSYFWSWIRQPPGKGLEWIGYIYDSGNTNYNPSLKSRVTISVDTSKNHFSLKLSSVTAADTAVYYCARRGGYYGSGNYGGMDVWGQGTTVTVSS VL: DIQMTQSPSSLSASVGDRVTITCRASQGISNYLAWYQQKPGKVPKLLIYAASTLQSGVPSRFSGSGSGTDFTLTISSLQPEDVATYYCQKYNSAPWTFGQGTKLEIK | 40
6 | 14E7_27C1 (antibody, V domains shown, Recombinant antibody from CHO cells) VH: QVQLQESGPGLVKPSETLSLTCTVSGGSISSYYWSWIRQPPGKGLEWIGYIYYSGSTNYNPSLKSRLTISVDTSKNQFSLKLSSVTAADTAVYYCARRGYSYGYYYGMDVWGQGTTVTVSS VL: DIQMTQSPSSLSASVGDRVTITCRASQDISNYLAWYQQKPGKVPKLLISPASTLQSGVPSRFSGSGSGTDFTLTISSLQPEDVATYYCQKYNSAPWTFGQGTKLEIK | 75
7 | 1C4_24B3 (antibody, V domains shown, Recombinant antibody from CHO cells; also called 1C4_24B4) VH: QVQLQEAGPGLVNPSKTLSLTCTVSGGSISSYFWSWIRQPPGKGLEWIGYIYNSGSTNYNPSLQSRVTISVDMSKNHFSLKLSSVTAADTAVYYCARRGGYYGSGNYGGMDVWGQGTTVTVSS VL: DIQMTQSPSSLSASAGDRVTITCRASQGISNYLAWYQQKPGKVPKLLMYAASALQSGVPSRFSGSGSGTDFTLTISSLQPEDVATYYCQKYDSAPWTFGQGTKVEIK | 12
8 | 5A2_24A1 (antibody, V domains shown, Recombinant antibody from CHO cells) VH: QVQLQESGPGLVNPSKTLSLTCTVSGGSISRYFWSWIRQPPGKGLEWIGYIYDSGSTNYNPSLKSRVTISVDTSKNHFSLKLSSVTAADTAVYYCARRGGYYGSGSYGGMDVWGQGTTVTVSS VL: DIQMTQSPSSLSASVGDRVTITCRASQGISNYLAWYQQKPGKIPKLLISAASTLQSGVPSRFSGSGSGTDFTLTISSLQPEDVATYYCQKYDSAPWTFGQGTKVEIK | 30
9 | 17E8_27C5 (antibody, V domains shown, Recombinant antibody from CHO cells) VH: QVQLVESGGGVVQPGRSLRLSCAASGFTFSNYGMHWVRQAPGKGLEWMAGIWFDGTNKYYIDSVKGRFTISRDNSKNTLYLQMNNLRAEDTAVYYCARDVISMVRGVPFDYWGQGTLVTVSS VL: DAVVTQESALTTSPGETVTLTCRSSTGAVTTSNYANWVQEKPDHLFTGLIGGINNRAPGVPARFSGSLIGDKAALTITGAQTEDEAIYFCALWYSNHWVFGGGTKLTVLG | 2

The remaining lines, values ahead:

Row | Kd [nM] | Binder
10 | 1 | 6H9_27D5 (antibody, V domains shown, Recombinant antibody from CHO cells) VH: QVELQQSGPGLVKPSETLSLTCTVSGGSISTYFWSWTRQPPGKGLEWIGYTNYRGNTNYNPSLESRVTISVDTSKNQFSLKLSSVTAADTAVYYCARRGGYYGSGNYGGMDVWGQGTTVTVSS VL: DIQMTQSPSSLSASVGDRVTITCRASQGISNYLAWYQQKPGKVPKLLIYAASTLQSGVPSRFSGSGSGTDFTLTISSLQPEDLATYYCQKYDSAPWTFGQGTKLEIK
11 | 2 | 5E3-24B4 (antibody, V domains shown, Recombinant antibody from CHO cells) VH: QVQLQESGPGLVKPSETLSLTCTVSGGSISSHYWNWIRQPPGKGLEWIGYIHYSGGTNYNPSQKSRVTISVDTSKNQFSLKLSSVTAADTAVYYCAGRRYYFDSSGYLDYWGQGTLVTVSS VL: DIQMTQSPSSLSASVGDRVTITCRASQGISNYLAWYQQKPGKIPKLLIYAASTLQSGVPSRFSGSGSGTDFTLTISSLQPEDVATYYCQKYNSAPWTFGQGTKLEIK
12 | 30 | 4F4_27D3 (antibody, V domains shown, Recombinant antibody from CHO cells) VH: QVQLQESGPGLVKPSETLSLTCTVSGGSISSHYWSWIRQPPGKGLEWIGYIYYNGGTNYKPSLKSRVTISVDTSKNQFSLKLTSVTAADTAVYYCAGRRYYYDSSGYLDYWGQGTLVTVSS VL: DIQMTQSPSSLSASVGDRVTITCRASQGISNYLAWYQQKPGKVPKLLIYAASTLQSGVPSRFSGSGSGTDFTLTISSLQPEDVATYYCQKYNSAPWTFGQGTKLEIK
13 | 170 | 3D8D11 (antibody, V domains shown, Recombinant antibody from CHO cells) VH: QVQLQESGPGLVKPSETLSLTCTVSGGSISSYFWSWIRQPPGKGLEWIGYIYYSGSTNYNPSLKSRVTISVDTSKNQFSLKLSSVTAADTAVYYCARRGGYSYGYGYYGMDVWGQGTTVTVSS VL: DIQMTQSPSSLSASVGDRVTITCRASQGISNYLAWYQQKPGKVPKLLIYAASTLQSGVPSRFSGSGSGTDFTLTISSLQPEDVATYYCQKYNSAPWTFGQGTKLEIK
14 | 6 | 1E2F12H8_3D2 (antibody, V domains shown) VH: EVQLLESGGGLVQPGGSLRLSCAASGFTFSSYAMSWVRQAPGKGLEWVSIISGSGGDTYYADSVKGRFTISRDNSKNTLYLQMNSLRAEDTAVYYCAKTDDHGDFFDYWGQGTLVTVSS VL: not shown
15 | 21 | 3C4A3_7C5 (antibody, V domains shown) VH: EVQLLESGGGLVQPGGSLRLSCAASGFTFSSYAMSWVRQAPGKGLEWVSVISGSGGSTYYADSVKGRFTISRDNSKNTLDLQMNSLRAEDTAVYYCAKLGDYYYGMDVWGQGTTVTVSS VL: not shown
16 | 3 | 1E12H10_7A1 (antibody, V domains shown) VH: QVQLVESGGGVVQPGRSLRLSCATSGFTFSSYGMHWVRQAPGKGLEWVALIWFDGGNQYYADSVKGRFTISRDNSKNTLYLQLNSLRAEDTAVYFCARDVISMVRGVPFDYWGQGTLVTVSS VL: DAVVTQESALTTSPGETVTLTCRSSTGAVTTGNYANWVQEKPDHLFTGLIGGIKNRVPGVPARFSGSLIGDRAALTITGAQTEDEAIYFCALWYSNHWVFGGGTKLTVLG
17 | 1 | 11H10_27D4 (antibody, V domains shown, Recombinant antibody from CHO cells) VH: QVQLVESGGGVVQPGRSLRLSCAASGFTFSNYGIHWVRQAPGKGLEWVAVIWFDGNNKYYADSVKGRFTISRDNSKNTLYLQMNSLRAEDTAVYYCARDVITLVRGVPFDYWGQGTLVTVSS VL: DAVVTQESALTTSPGETVTVTCRSSTGAVTTSNYANWVQEKPDHLFTGLIGGINNRAPGVPARFSGSLIGDKAALTITGAQTEDEAIYFCALWYSNHWVFGGGTKLTVLG
18 | 3 | 17F4_27C6 (antibody, V domains shown, Recombinant antibody from CHO cells) VH: QVQLVESGGGVVQPGRSLRLSCAASGFTFSTYGIHWVRQAPGKGLEWVAVIWFDGSNKYYADSVKGRFTISRDNSKNTLYLQMNSLRAEDTAVYYCARDVISMVRGVPFDYWGQGTLVTVSS VL: DAVVTQESALTTSPGETVTLTCRSSTGAVTTSNYANWVQEKPDHLFTGLIGGINNRVPGVPARFSGSLIGDKAALTITGAQTEDEAIYFCALWYSNHWVFGGGTKVTVLG
19 | 1 | 16B10_27D2 (antibody, V domains shown, Recombinant antibody from CHO cells) VH: QVQLVESGGGVVQPGRSLRLSCAASGFTFNNYGMHWVRQAPGKGLEWVAIIWNDGSNPYYADSVKGRFTISRDNSKNTLYLQMNSLRAEDTAVYYCVRDSSSWFVNYFDYWGQGTLVTVSS VL: EIVMTQSPATLSVSPGERATLSCRASQSVNRNLAWYQQKPGQAPRLLIYGASTRATGIPASFSGSGSGTEFTLTISSLQSEDFAVYYCQHYNHWPLTFGGGTKVEIK
20 | 10 | 8E11B6 (antibody, V domains shown) VH: QVQLEESGGGVVQPGRSLRLSCAASGFTFSSYGMHWVRQAPGKGLEWVAVIWYDGSNTYYADSVKGRFTISRDNSKNTLYLQMNSLRAEDTAVYYCARERETFFYVMDAWGQGASVTVSS VL: DIQMTQSPSTLSASVGDRVTITCRASQSISSWLAWYQQKPGKAPKLLIYKASSLESGVPSRFSGSGSGTEFTLTISSLQPDDFAIYYCQQFNRFITFGQGTRLEIK

Each binder was assayed against T2, recombinant cynomolgus monkey ILT3 ectodomain with C-terminal histidine tag (cynomolgus monkey) in the same assay as above.
T2 construct: extracellular domain; Non-native signal peptide; expressed in CHO cells
Protocol: (§1) Affinity: The affinity of antibodies to recombinant ILT3 was determined on an Octet Red™ (Pall, ForteBio) instrument. After loading reagents into a 96-well plate, the Octet Red™ with Protein A-conjugated biosensors was programmed as follows: 30 seconds for baseline #1; 45 seconds to immobilize the antibody; 30 seconds for baseline #2; 300 seconds for association of antibody to recombinant ILT3; and 300 seconds for dissociation of recombinant ILT3 from the antibody. In some cases, the antibody affinity was estimated against cynomolgus ILT3 using a flow based method. Briefly, the assay uses 3-5 fold dilutions from 100 nM to 0.1 nM of a stock antibody concentration (100 nM) diluted in flow buffer. […] Acquisition of the MFI (Median Fluorescent Intensity) was performed on a MACSQuant® Flow Cytometers (Miltenyi Biotec).

Row | Kd [nM] | Binder
21 | 27 | 1E2F12H8_3D2 (antibody, V domains shown) VH: EVQLLESGGGLVQPGGSLRLSCAASGFTFSSYAMSWVRQAPGKGLEWVSIISGSGGDTYYADSVKGRFTISRDNSKNTLYLQMNSLRAEDTAVYYCAKTDDHGDFFDYWGQGTLVTVSS VL: not shown
22 | 56 | 3C4A3_7C5 (antibody, V domains shown) VH: EVQLLESGGGLVQPGGSLRLSCAASGFTFSSYAMSWVRQAPGKGLEWVSVISGSGGSTYYADSVKGRFTISRDNSKNTLDLQMNSLRAEDTAVYYCAKLGDYYYGMDVWGQGTTVTVSS VL: not shown
23 | 200 | 1E12H10_7A1 (antibody, V domains shown) VH: QVQLVESGGGVVQPGRSLRLSCATSGFTFSSYGMHWVRQAPGKGLEWVALIWFDGGNQYYADSVKGRFTISRDNSKNTLYLQLNSLRAEDTAVYFCARDVISMVRGVPFDYWGQGTLVTVSS VL: DAVVTQESALTTSPGETVTLTCRSSTGAVTTGNYANWVQEKPDHLFTGLIGGIKNRVPGVPARFSGSLIGDRAALTITGAQTEDEAIYFCALWYSNHWVFGGGTKLTVLG

Each binder was assayed against T3, cynomolgus ILT3 expressed on HEK293 cells (Macaca fascicularis (cynomolgus monkey)) (assay: flow cytometry, serial antibody dilutions on live HEK293 cells expressing cynomolgus ILT3, Alexa Fluor 647 anti-human IgG secondary, MFI).
T3 construct: whole, on cells; also called Macaca fascicularis ILT3 homologue; macaque ILT3 homologue
Protocol: as §1

Row | EC50 (read off the curve) [nM] | Binder
24 | ~6 | 1E2F12H8_3D2 (antibody, V domains shown) VH: EVQLLESGGGLVQPGGSLRLSCAASGFTFSSYAMSWVRQAPGKGLEWVSIISGSGGDTYYADSVKGRFTISRDNSKNTLYLQMNSLRAEDTAVYYCAKTDDHGDFFDYWGQGTLVTVSS VL: not shown
